Test results from publication PMC4983199 (Cell, 2016).

T1: ZIKV E protein domain III (DIII), strain H/PF/2013 (Zika virus H/PF/2013)
T1 chain: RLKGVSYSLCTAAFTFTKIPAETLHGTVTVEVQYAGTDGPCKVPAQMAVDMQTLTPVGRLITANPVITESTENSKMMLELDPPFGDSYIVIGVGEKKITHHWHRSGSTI


What was measured:
[1] = molecular target: T1, ZIKV E protein domain III (DIII), …; test: cell-based or functional assay
[2] = molecular target: ZIKV E protein (recombinant, ectodomain, strain H/PF/2013) (Zika virus H/PF/2013, UniProt A0A024B7W1); test: ELISA
ZIKV E protein (recombinant, ectodomain, strain H/PF/2013), sequence (A0A024B7W1 whole entry, looked up, the tested form may be a part): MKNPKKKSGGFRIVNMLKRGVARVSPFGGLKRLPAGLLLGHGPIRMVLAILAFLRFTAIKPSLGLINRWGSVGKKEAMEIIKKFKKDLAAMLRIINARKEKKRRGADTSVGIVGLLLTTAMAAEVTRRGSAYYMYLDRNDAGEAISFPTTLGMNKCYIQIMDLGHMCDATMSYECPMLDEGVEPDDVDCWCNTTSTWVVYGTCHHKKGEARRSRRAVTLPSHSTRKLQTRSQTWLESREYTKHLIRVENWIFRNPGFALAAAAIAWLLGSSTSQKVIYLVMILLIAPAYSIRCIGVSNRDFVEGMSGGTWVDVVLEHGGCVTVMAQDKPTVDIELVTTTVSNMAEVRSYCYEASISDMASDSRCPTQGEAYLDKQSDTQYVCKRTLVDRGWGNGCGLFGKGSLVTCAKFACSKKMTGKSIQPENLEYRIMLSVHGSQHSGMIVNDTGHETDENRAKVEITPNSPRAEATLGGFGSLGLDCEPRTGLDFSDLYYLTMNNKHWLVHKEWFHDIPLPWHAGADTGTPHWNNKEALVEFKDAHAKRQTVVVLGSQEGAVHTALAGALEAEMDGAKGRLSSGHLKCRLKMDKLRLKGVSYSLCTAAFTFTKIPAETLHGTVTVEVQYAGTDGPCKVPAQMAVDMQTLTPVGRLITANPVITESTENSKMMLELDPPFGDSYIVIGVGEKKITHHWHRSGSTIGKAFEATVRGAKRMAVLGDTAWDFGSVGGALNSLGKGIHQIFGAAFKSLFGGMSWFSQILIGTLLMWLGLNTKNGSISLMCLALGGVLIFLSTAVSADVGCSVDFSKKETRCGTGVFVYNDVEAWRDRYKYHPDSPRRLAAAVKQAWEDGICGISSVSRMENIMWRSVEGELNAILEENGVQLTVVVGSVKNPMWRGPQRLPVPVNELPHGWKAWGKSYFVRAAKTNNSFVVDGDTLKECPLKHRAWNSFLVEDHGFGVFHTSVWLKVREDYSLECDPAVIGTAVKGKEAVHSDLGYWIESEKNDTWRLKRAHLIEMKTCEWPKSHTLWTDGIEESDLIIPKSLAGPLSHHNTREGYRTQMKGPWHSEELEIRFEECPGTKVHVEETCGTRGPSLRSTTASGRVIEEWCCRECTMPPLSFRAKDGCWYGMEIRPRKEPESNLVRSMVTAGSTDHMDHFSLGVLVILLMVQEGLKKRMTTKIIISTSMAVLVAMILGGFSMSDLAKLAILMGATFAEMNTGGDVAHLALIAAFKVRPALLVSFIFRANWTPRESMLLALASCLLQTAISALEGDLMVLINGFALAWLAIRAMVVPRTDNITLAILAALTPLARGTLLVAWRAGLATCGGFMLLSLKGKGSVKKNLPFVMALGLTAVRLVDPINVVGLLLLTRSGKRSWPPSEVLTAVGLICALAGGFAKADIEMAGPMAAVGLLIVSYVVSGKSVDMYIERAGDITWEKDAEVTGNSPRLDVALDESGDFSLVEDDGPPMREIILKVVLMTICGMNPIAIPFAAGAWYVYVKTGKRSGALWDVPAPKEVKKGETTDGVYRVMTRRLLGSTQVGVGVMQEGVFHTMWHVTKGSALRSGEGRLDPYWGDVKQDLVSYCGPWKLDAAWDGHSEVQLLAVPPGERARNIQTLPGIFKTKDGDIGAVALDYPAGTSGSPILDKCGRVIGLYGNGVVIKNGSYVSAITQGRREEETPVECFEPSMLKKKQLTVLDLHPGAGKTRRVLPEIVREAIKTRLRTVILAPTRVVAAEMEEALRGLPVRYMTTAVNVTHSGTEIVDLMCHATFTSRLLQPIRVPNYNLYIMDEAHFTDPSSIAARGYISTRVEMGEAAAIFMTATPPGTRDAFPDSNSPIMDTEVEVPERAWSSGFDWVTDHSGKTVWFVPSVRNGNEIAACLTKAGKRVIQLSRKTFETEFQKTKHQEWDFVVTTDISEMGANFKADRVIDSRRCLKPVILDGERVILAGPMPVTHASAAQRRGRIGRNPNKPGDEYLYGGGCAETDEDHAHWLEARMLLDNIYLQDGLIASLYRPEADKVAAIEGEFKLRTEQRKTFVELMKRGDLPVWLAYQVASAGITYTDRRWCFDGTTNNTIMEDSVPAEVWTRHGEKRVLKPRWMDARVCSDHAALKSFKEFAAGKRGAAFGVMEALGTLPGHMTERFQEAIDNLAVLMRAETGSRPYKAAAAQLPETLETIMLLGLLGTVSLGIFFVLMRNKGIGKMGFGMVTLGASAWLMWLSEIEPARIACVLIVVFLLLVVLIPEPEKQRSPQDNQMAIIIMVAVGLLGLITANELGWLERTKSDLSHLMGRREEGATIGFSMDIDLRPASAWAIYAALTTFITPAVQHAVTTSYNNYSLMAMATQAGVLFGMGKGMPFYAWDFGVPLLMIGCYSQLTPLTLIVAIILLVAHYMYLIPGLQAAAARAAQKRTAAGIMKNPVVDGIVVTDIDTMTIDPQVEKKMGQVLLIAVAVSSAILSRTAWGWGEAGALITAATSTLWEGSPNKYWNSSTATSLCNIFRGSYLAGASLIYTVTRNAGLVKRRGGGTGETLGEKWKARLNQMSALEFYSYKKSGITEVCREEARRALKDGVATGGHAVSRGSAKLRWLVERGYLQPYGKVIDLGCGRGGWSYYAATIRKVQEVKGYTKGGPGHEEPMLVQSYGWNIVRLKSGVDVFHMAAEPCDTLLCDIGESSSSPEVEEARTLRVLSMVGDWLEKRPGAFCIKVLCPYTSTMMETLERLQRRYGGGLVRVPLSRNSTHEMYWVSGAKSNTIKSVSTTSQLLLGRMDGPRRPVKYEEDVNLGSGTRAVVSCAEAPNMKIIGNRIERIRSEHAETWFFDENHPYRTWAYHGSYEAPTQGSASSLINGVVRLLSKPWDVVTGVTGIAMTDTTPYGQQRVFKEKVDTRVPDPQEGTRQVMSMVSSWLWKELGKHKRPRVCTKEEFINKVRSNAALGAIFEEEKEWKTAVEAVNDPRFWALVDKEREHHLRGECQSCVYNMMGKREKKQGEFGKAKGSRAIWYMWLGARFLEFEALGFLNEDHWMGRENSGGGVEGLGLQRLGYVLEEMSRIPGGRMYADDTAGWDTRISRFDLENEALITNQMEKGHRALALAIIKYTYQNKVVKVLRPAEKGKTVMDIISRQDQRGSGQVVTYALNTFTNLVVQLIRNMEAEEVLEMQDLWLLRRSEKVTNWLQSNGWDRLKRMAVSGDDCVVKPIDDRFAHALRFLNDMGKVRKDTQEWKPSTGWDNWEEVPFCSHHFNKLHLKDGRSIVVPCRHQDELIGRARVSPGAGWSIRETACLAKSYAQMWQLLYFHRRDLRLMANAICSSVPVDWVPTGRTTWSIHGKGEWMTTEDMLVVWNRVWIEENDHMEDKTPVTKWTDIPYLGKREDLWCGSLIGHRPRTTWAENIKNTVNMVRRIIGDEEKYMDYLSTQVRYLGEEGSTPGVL

[3] = molecular target: T1, ZIKV E protein domain III (DIII), …; test: BLI
[4] = molecular target: ZIKV subviral particles (SVPs, prM-E), strain H/PF/2013 (Zika virus H/PF/2013, UniProt A0A024B7W1); test: ELISA

| Binder | FRNT50, focus reduction neutralization of ZIKV H/PF/2013 on Vero cells [1] [ng/mL] | binding result [2] | Kd [3] [nM] | t1/2 [3] [min] | binding result [4] |
| --- | --- | --- | --- | --- | --- |
| ZV-48 mouse monoclonal antibody (antibody, V domains shown) VH: QVQLQQPGAELLKPGASVKLSCKASGYSFSNYWMHWVKQRPGQGPEWIGMIHPNSGNTKYNEKFKNKATLTVDKSSSMVYMQLSSLTSEDSAVFYCARLGNDMDYWGQGTSVTVSS VL: DIVMSQSPSSLAVSVGEKITMSCKSSQSLLYSNNEKNYLAWYQQKPGQSPKLLIYWASARDSGVPDRFTGSGSGTDFTLTISSVKAEDLAVFYCQQYYSYPYTFGGGTKLEIK | 485 | binds | 35 ± 0.8 | 3.2 |  |
| ZV-54 mouse monoclonal antibody (antibody, V domains shown) VH: QVQLQQSGVGLARPGTSVKLSCKASGYSFTTYGISWVTQRPGQGLEWIGVIYPRSNNTYYNERFRGKATLTADKSSSSAYLELRGLTAEDSAVYFCARENYGSVYWGQGTTLTVSS VL: DIVMTQSQKFMSTSVGDRVTITCKASQSVGTAVAWYHQKPGQSPKLLIYSASNRYTGVPDRFTGSGSGTDFTLTITYMQSEDLADYFCQQFSNYPFTFGGGTKLEIK | 87 | binds | 7.9 ± 0.2 | 33 | binds |
| ZV-67 mouse monoclonal antibody (antibody, V domains shown) VH: QAQLQQSGTGLARPGASVKLSCKASGYTFTSYGISWVTQRAGQGLEWIGVIYPRSGNTYYNEKFRGKATLTADKSSSSAYMELRGLTAEDSAVYFCARENYGSVYWGQGTTLTVSS VL: DIVMTQSQKFMSTSVGDRVSITCKASQNVGTAVAWYQQKPGQSPKLLIYSASNRYTGVPDRFTGSGSGTDFTLTISNMQSEDLADYFCQQFSSYPYTFGGGTKLEIK | 143 |  | 8.8 ± 1.7 | 13.8 |  |
| ZV-2 mouse monoclonal antibody (antibody, V domains shown) VH: QVQLQESGAELMKPGASVKLSCKTSGYTFIGYWIEWLKQRPGHGLEWVGEIFPGSGRTKYNEKFKGRATFTADTSSNMAYMQLSSLTTEDSAIYYCARYYYGSYYALDYWGQGTSVTVSS VL: DIVMTQSPSSLSVSAGEKVTLSCKSSQSLLHSGNQKNYLAWYQQKPGQAPKLLIYGASTRESGVPDRFTGSGSGTDFTLTISSVQAEDLAVYYCQNDHSYPLTFGAGTKLELK |  |  | 266 ± 42 | 0.3 |  |
